Laboratory results reported in paper PMC5726920.

T1: protein deglycase DJ-1, Q99497
T1 chain: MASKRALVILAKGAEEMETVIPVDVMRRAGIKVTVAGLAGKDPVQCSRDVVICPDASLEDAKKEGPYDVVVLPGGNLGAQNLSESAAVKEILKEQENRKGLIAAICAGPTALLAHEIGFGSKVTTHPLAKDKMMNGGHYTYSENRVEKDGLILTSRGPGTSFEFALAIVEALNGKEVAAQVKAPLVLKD

T2: heart isozyme of murine fatty acid binding protein (mouse), P11404
T2 chain: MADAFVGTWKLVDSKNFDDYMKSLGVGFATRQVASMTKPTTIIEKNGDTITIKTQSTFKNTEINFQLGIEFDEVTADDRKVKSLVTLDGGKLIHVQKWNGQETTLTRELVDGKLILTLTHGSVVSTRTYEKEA


How the values were obtained:
[1] = biological target: T1, protein deglycase DJ-1, Q99497; assay: native MS; conditions: remark: other sources report otherwise
[2] = biological target: T2, heart isozyme of murine fatty acid …; assay: native MS; conditions: remark: other sources report otherwise

Row | Binder | stoichiometry N [1] | stoichiometry N [2]
1 | protein deglycase DJ-1, Q99497 1-189 (enzyme) MASKRALVILAKGAEEMETVIPVDVMRRAGIKVTVAGLAGKDPVQCSRDVVICPDASLEDAKKEGPYDVVVLPGGNLGAQNLSESAAVKEILKEQENRKGLIAAICAGPTALLAHEIGFGSKVTTHPLAKDKMMNGGHYTYSENRVEKDGLILTSRGPGTSFEFALAIVEALNGKEVAAQVKAPLVLKD | 2 | –
2 | heart isozyme of murine fatty acid binding protein, P11404 1-133 (natural protein) MADAFVGTWKLVDSKNFDDYMKSLGVGFATRQVASMTKPTTIIEKNGDTITIKTQSTFKNTEINFQLGIEFDEVTADDRKVKSLVTLDGGKLIHVQKWNGQETTLTRELVDGKLILTLTHGSVVSTRTYEKEA | – | 2
